Measured values as given in US20160152686A1 (Bristol-Myers Squibb, published 2016).

B1: ABD-(GS)3-C7FL-His6 (anti-VEGFR2 adnectin linked to ABD at its N-terminus) (designed binder)
chain: MGQHDEAVDANSLAEAKVLANRELDKYGVSDYYKNLINNAKTVEGVKALIDEILAALPGSGSGSVSDVPRDLEVVAATPTSLLISWRHPHFPTRYYRITYGETGGNSPVQEFTVPLQPPTATISGLKPGVDYTITVYAVTDGRNGRLLSIPISINYRTGSGSHHHHHH
notes: also called ABD-C7FL; ATI-0001087
B2: PCSK9 adnectin-ABD fusion protein (PCSK9 adnectin-(GS)3-ABD-His6) (designed binder)
chain: MGVSDVPRDLEVVAATPTSLLISWVPPSDDYGYYRITYGETGGNSPVQEFTVPIGKGTATISGLKPGVDYTITVYAVEFPWPHAGYYHRPISINYRTGSGSGSQHDEAVDANSLAEAKVLANRELDKYGVSDYYKNLINNAKTVEGVKALIDEILAALPHHHHHH
notes: Expressed in E. coli; also called PCSK9 Adn-(GS)3-ABD; 2013_E01-(GS)3-ABD (anti-PCSK9)
B3: unmodified (i.e., without ABD) PCSK9 adnectin (designed binder)
chain: VSDVPRDLEVVAATPTSLLISWVPPSDDYGYYRITYGETGGNSPVQEFTVPIGKGTATISGLKPGVDYTITVYAVEFPWPHAGYYHRPISINYRT
notes: also called Enhancer method: None

Assays:
human serum albumin [1] = biological target: T1, human serum albumin (human, UniProt P02768 25-609); test: SPR, affinity to HSA
T1 construct: also called HSA; HuSA

sol VEGFR2 = test: SPR, VEGFR2 immobilized on chip, ABD-(GS)3-C7FL-His6 (0.02 nM-300 nM) as analyte
VEGFR2-Fc = test: as above
[2] = biological target: Cynomolgus monkey serum albumin (given as RhSA in Table 3) (Cynomolgus monkey; RhSA (table)); test: SPR, serum albumin immobilized on chip, ABD-(GS)3-C7FL-His6 (0.02 nM-300 nM) as analyte
Protocol: (§1) The binding affinity of ABD-(GS)3-C7FL-His6 to human, mouse and Cynomolgus monkey serum albumin was also measured. In an SPR experiment, the serum albumins were immobilized on chip, and ABD-(GS)3-C7FL-His6 (0.02 nM-300 nM) was flowed as analyte.

human serum albumin [3] = biological target: T1, human serum albumin; test: as above
Protocol: as §1

mouse serum albumin = biological target: T2, mouse serum albumin (mouse, UniProt P07724 25-608); test: as above
T2 construct: also called MuSA
Protocol: as §1

[4] = biological target: recombinant human PCSK9 expressed in baculovirus (human, UniProt Q8NBP7 31-692, limits assumed); test: PCSK9:EGFA FRET competition assay (inhibition of PCSK9 binding to biotinylated EGFA peptide)
Text: A fluorescence resonance energy transfer (FRET)-based assay was developed to determine the binding affinity and potency of PCSK9-binding adnectins. It was adapted from the general method described previously by Maio et al. (Miao, B. et al., Meth. Enzymol., 357:180-188 (2002); see also WO 2011/130354). The PCSK9:EGFA FRET assay measures the inhibition of PCSK9 binding to the LDLR epidermal growth factor precursor homology domain (EGFA domain), using recombinant human PCSK9 expressed in baculovirus and a synthetic 40-mer EGFA peptide (biotinylated). […] This assay uses a PCSK9 C-terminal domain binding mAb (mAb 4H5) labeled with Eu-chelate to provide FRET interaction with biotinylated EGFA through the streptavidin/allophycocyanin fluorophore complex. […] Thus, the biological activity of PCSK9 adnectin linked to ABD is at least as good as that of the unmodified PCSK9 adnectin.

Binder	Kd (human serum albumin [1])	Kd (sol VEGFR2)	koff (sol VEGFR2)	kon (sol VEGFR2)	Kd (VEGFR2-Fc)	koff (VEGFR2-Fc)	kon (VEGFR2-Fc)	Kd [2]	koff [2]	kon [2]	Kd (human serum albumin [3])	koff (human serum albumin [3])	kon (human serum albumin [3])	Kd (mouse serum albumin)	koff (mouse serum albumin)	kon (mouse serum albumin)	EC50 [4]
B1	1.15 nM	3.18 nM	0.000261 s⁻¹	82000 M⁻¹ s⁻¹	3.31 nM	0.000163 s⁻¹	49300 M⁻¹ s⁻¹	1.82 nM	0.000826 s⁻¹	455000 M⁻¹ s⁻¹	1.15 nM	0.000505 s⁻¹	439000 M⁻¹ s⁻¹	1 nM	0.00033 s⁻¹	331000 M⁻¹ s⁻¹	
B2	12.4 nM																0.3 nM
B3																	2.6 nM
